Source: ChEMBL document CHEMBL1128006, “Solid phase synthesis of trypanothione disulfide” (Bioorg Med Chem Lett, 1994)

Compound: NC(CCC(=O)NC1CSSCC(NC(=O)CCC(N)C(=O)O)C(=O)NCC(=O)NCCCNCCCCNC(=O)CNC1=O)C(=O)O
Test: Inhibitory activity against recombinant Trypanothione reductase from Trypanosoma cruzi

B1: Trypanothione reductase (Trypanosoma cruzi), P28593 (protein)
chain: MMSKIFDLVVIGAGSGGLEAAWNAATLYKKRVAVIDVQMVHGPPFFSALGGTCVNVGCVPKKLMVTGAQYMEHLRESAGFGWEFDRTTLRAEWKKLIAVKDEAVLNINKSYEEMFRDTEGLEFFLGWGSLESKNVVNVRESADPASAVKERLETENILLASGSWPHMPNIPGIEHCISSNEAFYLPEPPRRVLTVGGGFISVEFAGIFNAYKPKDGQVTLCYRGEMILRGFDHTLREELTKQLTANGIQILTKENPAKVELNADGSKSVTFESGKKMDFDLVMMAIGRSPRTKDLQLQNAGVMIKNGGVQVDEYSRTNVSNIYAIGDVTNRVMLTPVAINEAAALVDTVFGTNPRKTDHTRVASAVFSIPPIGTCGLIEEVASKRYEVVAVYLSSFTPLMHNISGSKYKTFVAKIITNHSDGTVLGVHLLGDNAPEIIQGVGICLKLNAKISDFYNTIGVHPTSAEELCSMRTPSYYYVKGEKMEKPSEASL
B1 showed a Km of 50 µM.
